Measurements: publication PMC7072298
One block for each substance: values may come before it.

What was measured:
[1] = target: HSP90αM domain (solid phase assays of Figure 2B and 2C); assay: ELISA; solid phase protein–protein interaction assay, dose-dependent; HSP90M domain (100 µg/mL) coated on plate, FN 30, 45, 70 and 120 kDa fragments at varying concentrations in solution
Tau (Homo sapiens) = Tau (Homo sapiens) (UniProt P10636); settings: cited from earlier work
[2] = target: glucocorticoid receptor LBD (Homo sapiens) (UniProt P04150); settings: cited from earlier work
Sequence of glucocorticoid receptor LBD (Homo sapiens) (P04150 523-777): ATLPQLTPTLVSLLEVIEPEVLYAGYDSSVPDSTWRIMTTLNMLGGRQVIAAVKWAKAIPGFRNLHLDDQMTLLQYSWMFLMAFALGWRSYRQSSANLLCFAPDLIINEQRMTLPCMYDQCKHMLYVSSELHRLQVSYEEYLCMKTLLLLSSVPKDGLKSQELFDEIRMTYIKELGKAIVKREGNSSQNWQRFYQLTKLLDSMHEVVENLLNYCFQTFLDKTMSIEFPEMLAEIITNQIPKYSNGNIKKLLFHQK

Sequence of Tau (Homo sapiens) (P10636 2-758): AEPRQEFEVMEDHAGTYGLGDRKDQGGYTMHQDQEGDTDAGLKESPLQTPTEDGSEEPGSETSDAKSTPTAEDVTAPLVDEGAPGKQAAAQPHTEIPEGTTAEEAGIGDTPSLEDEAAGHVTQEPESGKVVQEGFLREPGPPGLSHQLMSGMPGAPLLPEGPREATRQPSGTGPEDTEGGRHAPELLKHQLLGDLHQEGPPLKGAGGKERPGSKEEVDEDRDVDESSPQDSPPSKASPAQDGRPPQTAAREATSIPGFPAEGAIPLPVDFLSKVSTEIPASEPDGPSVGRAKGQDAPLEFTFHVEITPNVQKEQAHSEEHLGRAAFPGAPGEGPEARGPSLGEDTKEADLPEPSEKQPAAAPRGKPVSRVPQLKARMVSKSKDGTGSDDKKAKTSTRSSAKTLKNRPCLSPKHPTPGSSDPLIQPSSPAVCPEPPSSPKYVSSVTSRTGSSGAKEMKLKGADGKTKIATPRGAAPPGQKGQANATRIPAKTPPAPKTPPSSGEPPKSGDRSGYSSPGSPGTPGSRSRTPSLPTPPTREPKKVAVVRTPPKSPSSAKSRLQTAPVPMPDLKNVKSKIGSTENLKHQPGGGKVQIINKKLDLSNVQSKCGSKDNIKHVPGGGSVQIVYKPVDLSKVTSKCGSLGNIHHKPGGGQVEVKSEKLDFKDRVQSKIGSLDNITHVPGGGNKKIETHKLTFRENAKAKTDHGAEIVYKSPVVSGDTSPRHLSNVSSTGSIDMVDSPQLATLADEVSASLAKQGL

Substance: 45-kDa gelatin-binding FN fragment (FN45) (domain or fragment)
Kd of FN45 relative to that of FN30 (fold higher) [1]: 3 fold

Substance: HSP90 (from UniProt P07900)
Kd (Tau (Homo sapiens)): 4800 nM

Substance: HSP90 (from UniProt P02829)
Kd [2]: 800 nM

More lines, now with the values ahead:

Kd [1]: 500 nM
Substance: 70-kDa N-terminal FN fragment (FN70) (domain or fragment)

Kd [1]: 70 nM
Substance: N-terminal FN 30-kDa heparin-binding fragment (FN30) (domain or fragment)
